# Source: paper PMC5323203
# Molecular target: GST-Foxp1 fusion protein (mouse) (mouse) (UniProt P58462)
# Assay: pull-down; GST or GST-Foxp1 from bacterial extracts immobilised on GSH-agarose beads and washed; 1 ul of 35S-labelled in vitro translated Ikaros in 200 ul 0.02 M HEPES-KOH pH 7.9, 0.1% NP-40, 0.15 M NaCl, 1 mM DTT, 1 h at 4°C; quantified relative to input and to wild type (100%)
# Sequence of UniProt P58462 (P58462 whole entry, the tested form may be a part): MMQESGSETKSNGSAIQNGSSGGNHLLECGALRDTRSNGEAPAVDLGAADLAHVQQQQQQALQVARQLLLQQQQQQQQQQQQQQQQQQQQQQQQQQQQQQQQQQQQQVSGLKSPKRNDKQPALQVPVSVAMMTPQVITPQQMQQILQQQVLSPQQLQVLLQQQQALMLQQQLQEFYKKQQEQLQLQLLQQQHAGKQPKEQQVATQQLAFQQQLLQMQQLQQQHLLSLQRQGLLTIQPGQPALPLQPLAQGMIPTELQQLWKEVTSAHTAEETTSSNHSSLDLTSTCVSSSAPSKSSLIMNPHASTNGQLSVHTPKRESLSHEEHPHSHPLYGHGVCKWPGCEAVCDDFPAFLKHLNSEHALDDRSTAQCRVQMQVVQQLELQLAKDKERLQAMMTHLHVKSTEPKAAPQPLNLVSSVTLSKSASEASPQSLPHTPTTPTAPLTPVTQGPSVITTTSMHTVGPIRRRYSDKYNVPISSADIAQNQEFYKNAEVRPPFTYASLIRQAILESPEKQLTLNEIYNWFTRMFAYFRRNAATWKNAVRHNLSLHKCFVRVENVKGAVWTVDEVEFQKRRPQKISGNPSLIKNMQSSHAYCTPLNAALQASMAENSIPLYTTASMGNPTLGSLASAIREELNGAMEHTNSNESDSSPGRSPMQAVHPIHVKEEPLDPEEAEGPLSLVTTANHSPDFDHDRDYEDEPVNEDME
substance,measurement,value
IKΔ235-362 (mouse Ikaros deletion; in vitro translated) (domain or fragment),reduction relative to wild-type binding,40%
IKΔC458 (mouse Ikaros deletion of the two C-terminal zinc fingers; in vitro translated) (domain or fragment),reduction relative to wild-type binding,50%
